The values below are quoted from earlier work in PMC2792886.

The pKd is the Kd on a negative log10 scale, so that one unit is a factor of ten.

pKd: −log10 of the molar value.

The data set addresses holoBirA (Escherichia coli) (UniProt P06709).

For the substance holoBirA (from UniProt P06709), the pKd is 5.00.
